Experiment: yeast display, Sf9 membrane polyspecificity reagent, FACS + sequencing; frameworks hold sequencing errors
Summary of the method: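 Genes from sorted yeast were amplified by colony PCR, read by MiSeq 2 × 250 sequencing and filtered on CDR length. These cells carried a synthetic nanobody library in Saccharomyces cerevisiae BJ5465 and were sorted by FACS into low and high (top ~1%) gates on anti-HA and streptavidin fluorescence. Polyreactivity is labelled according to the gate of origin.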

| Sequence | polyreactivity (PSR sort gate) |
| --- | --- |
| QVQLVESGGGLVQAGGSLRLSCAASGSTFTLNAMGWYRQAPGKERELVAAITSGGRTKYADSVKGRFTISRDNAKNTVYLQMNSLKPEDTAVYYCAATFAGGYGYWGQGTQVTVSS | high polyreactivity |
| QVQLVESGGGLVQAGGSLRLSCAASGFTFIQYAMGWYRQAPGKERELVAAISVSGGSTYYADSVKGRFTISRDNAKNTVYLQMNSLKPEDTAVYYCNTVTSGFLSYDYWGQGTQVTVSS | high polyreactivity |
| QVQLVESGGGLFQAGGSLRLSCAASGFIFGLYAMGWYRQAPGKEREFVAAISTSSGITYYADSVKGRFTISRDNAKNTVYLQMNSLKPEDTAVYDCAARGHYYDYWRQGTQVTVSS | low polyreactivity |
| QVQLEESGGGLVQAGGSLRLSCAASGYTFFTNVMGWYRQAPGKERELVATITTGGSTYADSVKGRFTISRDNAKNTVYLQMNSLKPEDTAVYYCAVDALTGAWLGGYPYWADGYDYWGQGTQVTVSS | low polyreactivity |
| QVQLEESGGGLVQAGGSLRLSCAASGIIFPVYAMGWYRQAPGKERELVAAITRSGGITYYADSVKGRFTISRDNEKNTVYLQMNSLKPEDTAVYDCAASVYSLSRRSWMDYWGQGTQVTVSS | low polyreactivity |
| QVQLVESGGGLVQAGGSLRLSCAASGSISVWYVMGWYRQAPGKERELVAAITRSGGSTFYADSVKGRFTISRDNAKNTVYLQMNSLKPEDTAVYYCAADGGVAWGYGYWGQGTQVTVSS | low polyreactivity |
| QVQLVESGGGLVQAGGSLRLSCAASGRIFVRNALGWYRQAPGKERELVAGINSGGGTTYADSVKGRFTISRDNAKNTVYLQMNSLKPEDTAVYYCAAGYWTRYWSWVDYWGQGTQVTVSS | high polyreactivity |
| QVQLVESGGGLVQAGGSLRLSCAASGRIFRVYAMGWYRQAPGKERELVAAISSGGSTNYADSVKGRFTISRDNAKNTVYLQMNSLKPEDTAVYYCAATVRGVGYRYYYWGQGTQVTVSS | high polyreactivity |
| QVQLVESGGGLVQAGGSLRLSCAASGRILYHYAMGWYRQAPGKERELVAAITFSGDTTYYADSVKGRFTISRDNAKNTVYLQMNSLKPEDTAVYYCNTDYYWNYVSRLYDYWGQGTQVTVSS | high polyreactivity |
| QVQLVESGGGLVQAGGSLRLSCAASGFIFSLYAMGWYRQAPGKERELVAAISKRGGSTNYADSVKGRFTISRDNAKNNVYLQMNSLKPEDTAVYYCAKARPGFLYDHWGQGTQVTVSS | high polyreactivity |
| QVQLVESGGGLVQAGGSLRLICAASGFNFQRYAMGWYIQAPGKERELVATISNSGGRTYYADSVKGRFTISRDNAKNTVYLQMNSLKPEDTAVYYCAAGKPYSSYWSWGYWSNLEDDYWGQGTQVTVSS | high polyreactivity |
| QVQLVESGGGLVQAGGSLRLSCAASGSTFFGYAMGWYRQAPGKERELVAAITSGGSTNYADSVKGRFTISRDNAKNTVYLQMNRLIPDDTAVYFCARRWYRGYGYWGQGTQVTVSS | high polyreactivity |
| QVQLVESGGGLVQAGGSLRLSCAASGRIIYYYAMGWYRQAPGKERELVAAISWSGVNTYYADSVKGRFTISRDNAKNTVYLQMNSLKPEDTAVYYCAAGFAYKYSKGFWSDYWGQGTQVTVSS | high polyreactivity |
| QVQLVESGGGLVQSGGSLRLICAASGRIFPYYAMGWYRQAPGKERELVATIRGRVGTTYYADSVKGRFTISRDNAKNTVYLQMTSLKPEDTAVYYCAKREYSRYTRVFGYGSWGQCTQVTVSS | high polyreactivity |
| QVQLVESGGGLVQAGGSLRLSCAASGSTFYDYVMGWYRKAPGKERELVAAITGDGTTDYADSVKGRFTISRDNAKNTVYLQMNSLKPEDTAVYYCNADISLDYDYWGQGTQVTVSS | low polyreactivity |
| QVQLVESGGGLVQAGGSLRLSCAASGRIFAYYAMGWYRQAPGKERELVAAITRRSGDTTYYADSVKGRFTISRDNAKNTVYLQMNSLKPEDTAVYYCAARNPSFSSQYYSWGQGTQVTVSS | high polyreactivity |
| QVQLVESGGGLVQAGGSLRLSCAASGSIQARYAMGWYRQAPGKERELVASITTSGDSTYYADSVKGRFTISRDNAKNTVYLQMNSLKPEDTAVSYCARRRWGWGYQHFPYYYWGQGTQVTVSS | high polyreactivity |
| QVQLVESGGGLVQAGGSLRLSCAASGFIFYRYTMGWYRQAPGKERELVASISSGGSTNYADSVKGRFTISRDNAKNTVYLQMNSLKPEDTAVYYCAASRFRWVQRYDYWGQGTQVTVSS | high polyreactivity |
| QVQLVESGGGLVQAGGSLRLSCAASGITFTLYAMGWYRQAPGKERELVASISWSGGSTYYADSVKGRFTISRDIAKNTVYLQMNSLKPEDTAVYYCNAVYARKYYYSHGYDYWGQGTQVTVSS | high polyreactivity |
| QVQLVESGGGLVQAGGSLRLSCAASGSIFRKYAMGWYRQAPGKERELVAVITTDGSTNYADSVKGRFTISRDNAKNTVNLQMNSLKPEDSAVYYCNAVRSSIGTDNDFWGQGTLVTVSS | low polyreactivity |
| QVQLVESGGGLVQAGGSLRLSCAASGSIFAYYAMGWYRQAPGKEMELVARIRRRSSSTFYADSVKGRFTISRDNAKNTVYLQMNSLKPEDTAVYYCAVRGPGTSTYWYHEYEYWGQGTQVTVSS | high polyreactivity |
| QDQLVESGGGLVQAGGSLRLSCAASGSTVSYYTMGWYRQAPGKERELVAAINGSGGSTYYADSVKGRFTISRDNAKNNVYLQMNSMKPEDTAVYYCAADIKRVLDIPMYYWGQGTQVTVSS | low polyreactivity |

| Sequence | polyreactivity (PSR sort gate) |
| --- | --- |
| QVQLVESGGGLVQAGGSLRLSCAASGSTLGPNVMGWYRQAPGKERELVAAISWRGGSTYYADSVKGRFTISRDNAKNTVYLQMNSLKPEDTAVNYGAARTTTYPYGYWGQGTQVTVSS | high polyreactivity |
| QVQLVESGGGLVQAGGSLRLSCTASGSIFSHNSMGWYRQAPGKERELVAAINQNGGITYYADSVKGRFTISRDNAKNTVYLQMNSLKPEDTAVYYCAARRYYRRPHKYDYWGQGTQVTVSS | high polyreactivity |
| QVQLVESGGGLVQAGGSLRLSCAASGSIFVPYTMGWYRQAPGKERELVAAINSSDDSTFYADSVKGRFTISRDNAKNTVYLKMYSLKPEDTAVYYCNATGYARWYTGDYWGQGTQVTVSS | low polyreactivity |
| QVQLVESGGGLVQAGGSLRLSCAASGLIFLYNAMGWYRQAPGKERELVAAISSGGGRTYYADSVKGRFTISRDNAKNTVYLQMNSLKPEDTAVYYCNVASYAKKRWTMDYWGQGTQVTVSS | high polyreactivity |
| QVQLVESGGGLVQAGGSLRLSCAASGLIFGYNAMGWYRQAPGKESELVAAISSSGGSTSYADSVKGRFTISRDNAKNTVYLQMNSLKPEDTAVYYCAAKPGRYADYDYNSWGQGTQVTVSS | low polyreactivity |
| QVQLVESGGGLVHAGGSHRLSCAASGSIFDVNAMGWYRPPRGKERELFAAITGTGGSTYYADSVKGRFTISRDNAKNSVYLQMYSLKPDDTSVYDCATVTGVRKYGYWGQGTQVTVSS | high polyreactivity |
| QVQLVESGGGLVQAGGSLRLSCAASGSTFWSNVMGWYRQAPGKERELVSAISYGGVTTSYADSVKGRFTISRDNAKNTVYLQMNSLKPEDTAVYYCAAYNGAHSHFGYWGQGTQVTVSS | low polyreactivity |
| QVQLVESGGGLVQAGGSLRLSCPASGLTFGGNAMGWYRQEPGKERELVAAISWSDDTTDYADSVKGRFTISRDNAKNTVYLQMNSLKPEDTAVYYCAARLPFEHVDYWGQGTQVTVSS | low polyreactivity |
| QVQLVESGGGLVQAGGSLRISCAASGITFVPNAMGWYRQAPGKERELVAAITGNGGRTYYADSVKGRFTISRDNAKNTVYLQMNSLKPEDTAVYYCNARKLYWAYTLRKYDYWGQGTQVTVSS | high polyreactivity |
| QVQLVESGGGLVQAGGSLRLSCAASGFTIGANNMGWYRQAPGKERELLAAISASGGSTYYADSVKGRFTISRDNAKNTVYLQMNSLKPEDTAVYYCAARRYPGRTATYYSWGQGTQVTVSS | high polyreactivity |
| QVQLEESGGGLVQAGGRLRLRCAASATYRYYGMGWYRQQPGNERELVAAISRSGSRTYYADSVKGRFTISRDNAKNTVYLQMNSLKPEESAFYYCAASSVYYGYDYWGQGTQVTVSS | high polyreactivity |
| QVQLVESGGGLVQAGGSLRLSCAASGITFAPYAMGWYRQAPGKERELVATITWSGGSTYYADSVKGRFTISRDNAKNTVYLQMNSLKPEDTAVYYCAAYNDTVPSAAHIYESWGQGTQVTVSS | low polyreactivity |
| QVQLVESWGGLVQEGRSLRLSCAASGYTFQRYNIRWYRPAPGKERELVAAINWSGGSTYYADSVKGRFTISRDNAMNTVYLQMIWLKPEDTAVYYFSRRYRDYGGYGYWGQGTQVSVSS | high polyreactivity |
| HVQLVESGGGLVQAGGRLRLSCAPSGSIFGLYGMGWYRQAPGKEREFVAAISQSGGRTYYADSVKGRFTISRDNAQNTVYLQMNSLKPEDTAVYYCATYVQRRGQYGIYDYWGQGTQVTVSS | high polyreactivity |
| QVQLVESGGGLDQAGGSLRLTCAASRFNFNGYAMGSYSQAPRKERELVAGITSGGRTNYADSVKGRFTISRDNAKNTVYLQMNSLKPEDTAVYYCNRYKVSGYDYWGQGTQVTVSS | high polyreactivity |
| QVQLVESGGGLVQAGGSLRLSCAASGSIFGRYAMGWYRQAPGKESELVAAISANGGSTYYADSVKGRFTISRDNAKNTVYLQMNSLKPEDTAVYYCAAGSTRGYKLGYWGQGTQVTVSS | high polyreactivity |
| QVQLVESGGGLVQAGGSLRLSCAASGRIFGYYTMGWYRQAPGKEREFVAAISYRGGSTYYADSVKGRFTISRDNAKNTVYLQKNSLKPEDTAVYYCNARKSYYTVRSYDSWGQGTQVTVSS | high polyreactivity |
| QVQLVESGGGLVQAGGSLRLSCAASGRTFDYYSMGWYRQAPGKERELVAAIRGSGGSTYYADSVKGRFTISRDNAKNTVSLQMNSLKPEDTAVYYCATDPPYFRTPWEYDYWGQGTQVTVSS | low polyreactivity |
| QVQLVESGGGLVQAGGSLRLSCAASGSIIKPYDMGWYIQAPGKERELVAAIRSSGGRTNYADSVKGRFTISRDNAKNTVYLQMNSLKPEDTAVYYCAAGYVSYWYYRYDYWGQGTQVTVSS | high polyreactivity |
| QVQLVESGGGLVKEGGSLRLSCAASGITFSWNAMGWYRQAPGKERELVAAISSSGGSTYYADSVKGRFTISRDYAKNTVYLLMNSLKPEDTAVYFCNADRFWFHWVYSRYHYDYWGQGTQVTVSS | high polyreactivity |
| QVQLVESGGGLVQAGGSLRLSCAASGRIFSLYAMGWYRQAPGKDRELVAAISRGGSTYYADSVKGRFTISRDNAKNTVYLQMNSLKPEDTAVSYCARRYWYPDAFYRYDYWGQGTQVTVSS | low polyreactivity |
